T1: recombinant human LAG-3-his protein (Novoprotein) (human, UniProt P18627 23-450)
T1 construct: Bought; also called huLAG-3; not shown: His tag
T1 sequence (looked up): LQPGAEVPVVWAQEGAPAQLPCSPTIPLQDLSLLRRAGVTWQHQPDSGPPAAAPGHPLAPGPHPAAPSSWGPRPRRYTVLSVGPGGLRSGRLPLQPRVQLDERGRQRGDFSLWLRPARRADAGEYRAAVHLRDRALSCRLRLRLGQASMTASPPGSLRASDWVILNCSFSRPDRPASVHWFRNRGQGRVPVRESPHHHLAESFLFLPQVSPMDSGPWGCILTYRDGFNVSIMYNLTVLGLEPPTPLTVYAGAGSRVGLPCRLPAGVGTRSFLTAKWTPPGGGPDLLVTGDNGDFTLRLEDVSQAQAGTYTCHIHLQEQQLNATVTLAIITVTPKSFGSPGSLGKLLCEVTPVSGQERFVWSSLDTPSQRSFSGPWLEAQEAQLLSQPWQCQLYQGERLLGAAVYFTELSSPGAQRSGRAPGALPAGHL


What was measured:
[1] = target: T1, recombinant human LAG-3-his protein …; experiment: BLI Octet, FIT-Ig captured, antigen analyte
[2] = target: T2, human PD-1-His protein (human, UniProt Q15116 25-167, limits assumed); experiment: BLI Octet, FIT-Ig captured, antigen analyte
T2 construct: also called huPD-1; not shown: His tag

[3] = target: T2, human PD-1-His protein; experiment: SPR Biacore
[4] = target: T3, human PD-1 expressed on cells (human, UniProt Q15116 25-288); experiment: cell RBA FACS; competitor PD-L1/Fc
T3 construct: whole, on cells; also called CHO-K1/huPD-1; CHO-K1-hPD-1 cells

[5] = target: T3, human PD-1 expressed on cells; experiment: cell RBA FACS; competitor PD-L2/Fc

T2 sequence (Q15116 25-167 limits assumed): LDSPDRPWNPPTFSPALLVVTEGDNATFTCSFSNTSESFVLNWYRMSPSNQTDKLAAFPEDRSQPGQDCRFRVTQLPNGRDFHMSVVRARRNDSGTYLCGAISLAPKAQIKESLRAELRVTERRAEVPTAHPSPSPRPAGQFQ
T3 sequence (Q15116 25-288): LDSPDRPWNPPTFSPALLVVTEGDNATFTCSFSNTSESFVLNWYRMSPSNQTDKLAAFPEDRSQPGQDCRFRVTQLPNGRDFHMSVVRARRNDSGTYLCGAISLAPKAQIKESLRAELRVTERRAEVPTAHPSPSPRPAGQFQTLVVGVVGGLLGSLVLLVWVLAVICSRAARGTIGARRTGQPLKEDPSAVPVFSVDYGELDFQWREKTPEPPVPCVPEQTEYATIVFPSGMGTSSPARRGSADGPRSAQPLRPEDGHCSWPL

| Binder | Kd [3] [nM] | koff [3] [s⁻¹] | kon [3] [M⁻¹ s⁻¹] | IC50 [4] [nM] | IC50 [5] [nM] | further results |
| --- | --- | --- | --- | --- | --- | --- |
| FIT107-1-7b-2 (bispecific antibody, human IgG1, kappa, L234A L235A, FIT-Ig hexamer; outer anti-LAG-3 (HumAb747V-72 with G55A), inner anti-PD-1 (HumAb713-7)) chain 1: not shown chain 2: EVQLVQSGAEVKKPGATVKLSCTASGFNIKDDYMHWVKQRPEQGLDWIGWIVPRNANTVYASKFQGKATITADTSTNTAYLELSSLRSEDTAVYYCTVYGDYWGQGTTVTVSSASTKGPSVFPLAPSSKSTSGGTAALGCLVKDYFPEPVTVSWNSGALTSGVHTFPAVLQSSGLYSLSSVVTVPSSSLGTQTYICNVNHKPSNTKVDKKVEPKSC chain 3: not shown |  |  |  |  |  | Kd [1]: 1.41 nM; koff [1]: 0.000246 s⁻¹; kon [1]: 174000 M⁻¹ s⁻¹; Kd [2]: 7.9 nM; koff [2]: 0.000827 s⁻¹; kon [2]: 105000 M⁻¹ s⁻¹ |
| HumAb703-12 (antibody, human IgG1, kappa, L234A L235A, V domains shown, humanized mAb703) VH: EVQLQESGPGLVKPSETLSLTCAVSGYSISTGYYWNWIRQPPGKGLEWIGYMSYDGNNNYNPSLKNRITISRDTSKNQFSLKLSSVTAADTAVYYCARDRGTTILGGTMDYWGQGTTVTVSS VL: DIQMTQSPSSLSASVGDRVTITCKASQSVSNDVAWYQQKPGKAPKLLIYYAFYRYTGVPDRFSGSGYGTDFTLTISSLQPEDFATYYCQQDYSSPWTFGGGTKVEIKR | 9 | 0.00159 | 177000 |  |  |  |
| HumAb703-11 (antibody, human IgG1, kappa, L234A L235A, V domains shown, humanized mAb703) VH: EVQLQESGPGLVKPSETLSLTCAVSGYSISTGYYWNWIRQPPGKGLEWIGYMSYDGNNNYNPSLKNRVTISRDTSKNQFSLKLSSVTAADTAVYYCARDRGTTILGGTMDYWGQGTTVTVSS VL: DIQMTQSPSSLSASVGDRVTITCKASQSVSNDVAWYQQKPGKAPKLLIYYAFYRYTGVPDRFSGSGYGTDFTLTISSLQPEDFATYYCQQDYSSPWTFGGGTKVEIKR | 9.37 | 0.00176 | 187000 |  |  |  |
| HumAb703-13 (antibody, human IgG1, kappa, L234A L235A, V domains shown, humanized mAb703) VH: EVQLQESGPGLVKPSETLSLTCAVSGYSISTGYYWNWIRQPPGKGLEWMGYMSYDGNNNYNPSLKNRITISRDTSKNQFSLKLSSVTAADTAVYYCARDRGTTILGGTMDYWGQGTTVTVSS VL: DIQMTQSPSSLSASVGDRVTITCKASQSVSNDVAWYQQKPGKAPKLLIYYAFYRYTGVPDRFSGSGYGTDFTLTISSLQPEDFATYYCQQDYSSPWTFGGGTKVEIKR | 10.6 | 0.00154 | 145000 |  |  |  |
| HumAb703-18 (antibody, human IgG1, kappa, L234A L235A, V domains shown, humanized mAb703) VH: EVQLQESGPGLVKPSETLSLTCAVSGYSISTGYYWNWIRQPPGKGLEWMGYMSYDGNNNYNPSLKNRITISRDTSKNQFSLKLSSVTAADTAVYYCARDRGTTILGGTMDYWGQGTTVTVSS VL: DIQMTQSPSSLSASVGDRVTITCKASQSVSNDVAWYQQKPGKSPKLLIYYAFYRYTGVPDRFSGSGYGTDFTLTISSLQPEDFATYFCQQDYSSPWTFGGGTKVEIKR | 18.9 | 0.00124 | 65700 |  |  |  |
| HumAb703-22 (antibody, human IgG1, kappa, L234A L235A, V domains shown, humanized mAb703; also called HurnAb703-22) VH: EVQLQESGPGLVKPSETLSLTCAVSGYSISTGYYWNWIRQPPGKGLEWIGYMSYDGNNNYNPSLKNRITISRDTSKNQFSLKLSSVTAADTAVYYCARDRGTTILGGTMDYWGQGTTVTVSS VL: SIVMTQSPSSLSASVGDRVTITCKASQSVSNDVAWYQQKPGKSPKLLIYYAFYRYTGVPDRFTGSGYGTDFTLTISSLQPEDFATYFCQQDYSSPWTFGGGTKVEIKR | 6.94 | 0.00159 | 229000 |  |  |  |
| mAb703c (antibody, V domains shown) VH: DVQLQESGPGLVKPSQSLSLTCSVTGYSITTGYYWNWIRQFPGNKLEWMGYMSYDGNNNYNPSLKNRISITRDTSKNQFLLRLNSVTTEDTATYFCARDRGTTILGGTMDYWGQGTSVTVS VL: SIVMTQTPKFLFVSAGDRVTIACKASQSVSNDVAWYQQKPGQSPKLLIYYAFYRYTGVPDRFTGSGYGTDFTFTISTVQAEDLAVYFCQQDYSSPWTFGGGTKLEIK | 2.68 | 0.000966 | 359000 |  |  |  |
| HumAb713-6 (antibody, human IgG1, kappa, L234A L235A, V domains shown, humanized mAb713; also called HurnAb713-6) VH: EVQLVESGGGLVQPGGSLRLSCAASGFTFSDYGMHWVRQAPGKGLEWVSYISSGSYTIYYADTVKGRFTISRDNAKNSLYLQMNSLRDEDTAVYYCAKRGGSSHVNVMDYWGQGTTVTVSS VL: DIQMTQSPSSLSASVGDRVTITCKASDHINNWLAWYQQKPGKAPKLLIYGATSLETGVPSRFSGSGSGTDYTFTISSLQPEDIATYYCQQYWSPPYTFGGGTKVEIKR |  |  |  | 1.04 | 1.46 |  |
| HumAb713-8 (antibody, human IgG1, kappa, L234A L235A, V domains shown, humanized mAb713; also called HurnAb713-8) VH: EVQLVESGGGLVQPGGSLRLSCAASGFTSSDYGMHWVRQAPGKGLEWVAYISSGSYTIYYADTVKGRFTISRDNAKNSLYLQMNSLRDEDTAVYYCAKRGGSSHVNVMDYWGQGTTVTVSS VL: DIQMTQSPSSLSASVGDRVTITCKASDHINNWLAWYQQKPGKAPKLLIYGATSLETGVPSRFSGSGSGTDYTFTISSLQPEDIATYYCQQYWSPPYTFGGGTKVEIKR |  |  |  | 1.05 | 1.91 |  |
| HumAb713-2 (antibody, human IgG1, kappa, L234A L235A, V domains shown, humanized mAb713) VH: EVQLVESGGGLVQPGGSLRLSCAASGFTFSDYGMHWVRQAPGKGLEWVSYISSGSYTIYYADTVKGRFTISRDNAKNSLYLQMNSLRDEDTAVYYCAKRGGSSHVNVMDYWGQGTTVTVSS VL: DIQMTQSPSSLSASVGDRVTITCKASDHINNWLAWYQQKPGKAPKLLIYGATSLETGVPSRFSGSGSGTDFTFTISSLQPEDIATYYCQQYWSPPYTFGGGTKVEIKR |  |  |  | 1.71 | 3.13 |  |
| HumAb713-5 (antibody, human IgG1, kappa, L234A L235A, V domains shown, humanized mAb713) VH: EVQLVESGGGLVQPGGSLRLSCAASGFTFSDYGMHWVRQAPGKGLEWVSYISSGSYTIYYADTVKGRFTISRDNAKNSLYLQMNSLRDEDTAVYYCARRGGSSHVNVMDYWGQGTTVTVSS VL: DIQMTQSPSSLSASVGDRVTITCKASDHINNWLAWYQQKPGKAPKLLIYGATSLETGVPSRFSGSGSGTDYTFTISSLQPEDIATYYCQQYWSPPYTFGGGTKVEIKR |  |  |  | 0.91 | 2.95 |  |
| HumAb713-4 (antibody, human IgG1, kappa, L234A L235A, V domains shown, humanized mAb713) VH: EVQLVESGGGLVQPGGSLRLSCAASGFTSSDYGMHWVRQAPGKGLEWVAYISSGSYTIYYADTVKGRFTISRDNAKNSLYLQMNSLRDEDTAVYYCAKRGGSSHVNVMDYWGQGTTVTVSS VL: DIQMTQSPSSLSASVGDRVTITCKASDHINNWLAWYQQKPGKAPKLLIYGATSLETGVPSRFSGSGSGTDFTFTISSLQPEDIATYYCQQYWSPPYTFGGGTKVEIKR |  |  |  | 1.06 | 2.24 |  |
| FIT107-1-7a-1 (bispecific antibody, human IgG1, kappa, L234A L235A, FIT-Ig hexamer; outer anti-PD-1 (HumAb713-7), inner anti-LAG-3 (HumAb747V-67 with G55A)) chain 1: not shown chain 2: EVQLVESGGGLVQPGGSLRLSCAASGFTSSDYGMHWVRQAPGKGLEWVSYISSGSYTIYYADTVKGRFTISRDNAKNSLYLQMNSLRDEDTAVYYCAKRGGSSHVNVMDYWGQGTTVTVSSASTKGPSVFPLAPSSKSTSGGTAALGCLVKDYFPEPVTVSWNSGALTSGVHTFPAVLQSSGLYSLSSVVTVPSSSLGTQTYICNVNHKPSNTKVDKKVEPKSC chain 3: DIQMTQSPSSLSASVGDRVTITCRASQEISGYLSWLQQKPGGAIKRLIYAASALDSGVPSRFSGSRSGSDYTLTISSLQPEDFADYYCLQYASYPLTFGQGTKLELKRTVAAPSVFIFPPSDEQLKSGTASVVCLLNNFYPREAKVQWKVDNALQSGNSQESVTEQDSKDSTYSLSSTLTLSKADYEKHKVYACEVTHQGLSSPVTKSFNRGEC |  |  |  |  |  | Kd [1]: 0.732 nM; koff [1]: 0.000124 s⁻¹; kon [1]: 169000 M⁻¹ s⁻¹; Kd [2]: 3.04 nM; koff [2]: 0.000538 s⁻¹; kon [2]: 177000 M⁻¹ s⁻¹ |
| FIT107-1-7a-2 (bispecific antibody, human IgG1, kappa, L234A L235A, FIT-Ig hexamer; outer anti-PD-1 (HumAb713-7), inner anti-LAG-3 (HumAb747V-72 with G55A)) chain 1: not shown chain 2: EVQLVESGGGLVQPGGSLRLSCAASGFTSSDYGMHWVRQAPGKGLEWVSYISSGSYTIYYADTVKGRFTISRDNAKNSLYLQMNSLRDEDTAVYYCAKRGGSSHVNVMDYWGQGTTVTVSSASTKGPSVFPLAPSSKSTSGGTAALGCLVKDYFPEPVTVSWNSGALTSGVHTFPAVLQSSGLYSLSSVVTVPSSSLGTQTYICNVNHKPSNTKVDKKVEPKSC chain 3: DIQMTQSPSSLSASVGDRVTITCRASQEISGYLSWLQQKPGGAIKRLIYAASALDLGVPSRFSGSRSGSDYTLTISSLQPEDFADYYCLQYASYPLTFGQGTKLELKRTVAAPSVFIFPPSDEQLKSGTASVVCLLNNFYPREAKVQWKVDNALQSGNSQESVTEQDSKDSTYSLSSTLTLSKADYEKHKVYACEVTHQGLSSPVTKSFNRGEC |  |  |  |  |  | Kd [1]: 1.22 nM; koff [1]: 0.000128 s⁻¹; kon [1]: 105000 M⁻¹ s⁻¹; Kd [2]: 3.17 nM; koff [2]: 0.000526 s⁻¹; kon [2]: 166000 M⁻¹ s⁻¹ |
| FIT107-1-7a-3 (bispecific antibody, human IgG1, kappa, L234A L235A, FIT-Ig hexamer) chain 1: not shown chain 2: EVQLVESGGGLVQPGGSLRLSCAASGFTSSDYGMHWVRQAPGKGLEWVSYISSGSYTIYYADTVKGRFTISRDNAKNSLYLQMNSLRDEDTAVYYCAKRGGSSHVNVMDYWGQGTTVTVSSASTKGPSVFPLAPSSKSTSGGTAALGCLVKDYFPEPVTVSWNSGALTSGVHTFPAVLQSSGLYSLSSVVTVPSSSLGTQTYICNVNHKPSNTKVDKKVEPKSC chain 3: DIQMTQSPSSLSASVGDRVTITCRASQEISGYLSWLQQKPGGAIKRLIYAASTLDSGVPSRFSGSRSGSDYTLTISSLQPEDFADYYCLQYASYPLTFGQGTKLELKRTVAAPSVFIFPPSDEQLKSGTASVVCLLNNFYPREAKVQWKVDNALQSGNSQESVTEQDSKDSTYSLSSTLTLSKADYEKHKVYACEVTHQGLSSPVTKSFNRGEC |  |  |  |  |  | Kd [1]: 1.47 nM; koff [1]: 0.000134 s⁻¹; kon [1]: 91000 M⁻¹ s⁻¹; Kd [2]: 3.01 nM; koff [2]: 0.000628 s⁻¹; kon [2]: 208000 M⁻¹ s⁻¹ |

Reference: patent US20210188980A1 (SHANGHAI EPIMAB BIOTHERAPEUTICS, published 2021)
